Laboratory results reported in the supplement of paper PMC10126150.
± gives the standard deviation of the averaged measurements.
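Also: ATP exposure 15 min at 22 °C before imaging.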

These sequences were tested on ATP (assay: switch fluorescence ratio, 500 uM ATP over buffer (Cy3 cluster intensity, sum of 5 cycles each) (fold (ratio)); higher = stronger signal-on switching upon ATP binding; sequences stand for … in TCGTCGGCAGCGTCAGATGTGTATAAGAGACAGTTTTTTTTTTTTTTTTTTTTTTTTT…TC). Details: aptamer strand: ATP DNA aptamer (quencher-CACCTGGGGGAGTATTGCGGAGGAAGG + anchor), 100 nM annealed; ATP concentration: 500 uM.
In short: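 Per cluster, summed Cy3 intensity from the target cycles was divided by that from the buffer cycles to give the fluorescence ratio, then averaged per switch-domain sequence. Clusters outside 100-1000 RFU were excluded. The Cy3-labelled switching-strand clusters, on a modified Illumina MiSeq flow-cell, were annealed to 100 nM quencher-labelled ATP aptamer and imaged in selection buffer, then after 15 min with 500 uM ATP at 22 °C, for five cycles with NaOH stripping and re-annealing between them.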
AAAATTGGTT showed a switch fluorescence ratio of 1.009 ± 0.007.
In the case of AAAATTTATT, the switch fluorescence ratio is reported as 0.989 ± 0.018.
Sequence AAAATTTTAT has a switch fluorescence ratio of 0.989 ± 0.026.
In the case of AAAATTTTGA, the switch fluorescence ratio is reported as 0.992 ± 0.025.
AAACAAAAGT was tested, and the switch fluorescence ratio was 1.01 ± 0.037.
For AAACAAACCC, the switch fluorescence ratio was 1.01 ± 0.042.
Work on AAACACGACT yielded a switch fluorescence ratio of 1.07 ± 0.011.
Sequence AAACACGAGC has a switch fluorescence ratio of 1.067 ± 0.0061.
Work on AAACAGCGTG yielded a switch fluorescence ratio of 1.01 ± 0.017.
AAACAGTATA was tested, and the switch fluorescence ratio was 1.03 ± 0.027.
With AAACAGTTGT the switch fluorescence ratio was 1.01 ± 0.055.
Sequence AAACATAAAG has a switch fluorescence ratio of 0.995 ± 0.027.
For AAACATAGCC, the switch fluorescence ratio was 1.07 ± 0.011.
AAACATAGGG gave a switch fluorescence ratio of 1.02 ± 0.038.
AAACCAAACT was tested, and the switch fluorescence ratio was 1.34 ± 0.31.
For AAACCACCCA, the switch fluorescence ratio was 1.1 ± 0.019.
AAACCCAGCT gave a switch fluorescence ratio of 0.988 ± 0.02.
Sequence AAACCCTGGG has a switch fluorescence ratio of 1.04 ± 0.029.
With AAACCGTT the switch fluorescence ratio was 1.04 ± 0.024.
Work on AAACCTTGCA yielded a switch fluorescence ratio of 1.92 ± 0.15.
In the case of AAACGAACAT, the switch fluorescence ratio is reported as 1.217 ± 0.011.
In the case of AAACGACATT, the switch fluorescence ratio is reported as 1.13 ± 0.13.
In the case of AAACGAGAAC, the switch fluorescence ratio is reported as 3.04 ± 2.8.
Work on AAACGAGGGA yielded a switch fluorescence ratio of 0.997 ± 0.051.
AAACGATTTC was tested, and the switch fluorescence ratio was 1.01 ± 0.019.
AAACGCATCT gave a switch fluorescence ratio of 1.1304 ± 0.0008.
In the case of AAACGCCGAA, the switch fluorescence ratio is reported as 0.986 ± 0.062.
With AAACGCGACT the switch fluorescence ratio was 1.31 ± 0.2.
With AAACGGATGC the switch fluorescence ratio was 0.9573 ± 0.0092.
AAACGGCACG was tested, and the switch fluorescence ratio was 1.009 ± 0.0032.
For AAACGGCTCT, the switch fluorescence ratio was 0.967 ± 0.031.
In the case of AAACGGGAG, the switch fluorescence ratio is reported as 1.032 ± 0.0067.
AAACGGGGGC was tested, and the switch fluorescence ratio was 1 ± 0.085.
In the case of AAACTACTAC, the switch fluorescence ratio is reported as 1.147 ± 0.0017.
For AAACTCGCGC, the switch fluorescence ratio was 1.07 ± 0.012.
AAACTCTTGT was tested, and the switch fluorescence ratio was 1.01 ± 0.0033.
Work on AAACTCTTTT yielded a switch fluorescence ratio of 0.978 ± 0.039.
AAACTGGGCG was tested, and the switch fluorescence ratio was 1.04 ± 0.062.
AAACTGTTTG showed a switch fluorescence ratio of 0.996 ± 0.024.
AAACTTGGGT showed a switch fluorescence ratio of 1.04 ± 0.024.
In the case of AAACTTGTGA, the switch fluorescence ratio is reported as 1.02 ± 0.024.
Sequence AAACTTTCTT has a switch fluorescence ratio of 1.03 ± 0.021.
In the case of AAACTTTTAA, the switch fluorescence ratio is reported as 1.01 ± 0.019.
AAAGAAACAT gave a switch fluorescence ratio of 1.07 ± 0.08.
For AAAGAAACGG, the switch fluorescence ratio was 1.1 ± 0.035.
With AAAGAAGATG the switch fluorescence ratio was 0.953 ± 0.045.
AAAGAATTGG was tested, and the switch fluorescence ratio was 0.975 ± 0.045.
AAAGACAGTT was tested, and the switch fluorescence ratio was 1.01 ± 0.049.
In the case of AAAGACGAT, the switch fluorescence ratio is reported as 1.01 ± 0.017.
AAAGACGGCA gave a switch fluorescence ratio of 1.53 ± 0.02.
Work on AAAGAGACAG yielded a switch fluorescence ratio of 0.993 ± 0.0046.
In the case of AAAGAGCAAT, the switch fluorescence ratio is reported as 1.79 ± 1.1.
For AAAGAGGAAG, the switch fluorescence ratio was 0.987 ± 0.02.
AAAGAGGGAT was tested, and the switch fluorescence ratio was 0.986 ± 0.053.
Sequence AAAGAGGGT has a switch fluorescence ratio of 0.986 ± 0.018.
In the case of AAAGAGTAGA, the switch fluorescence ratio is reported as 1.025 ± 0.0034.
AAAGAGTGTG showed a switch fluorescence ratio of 0.988 ± 0.037.
With AAAGATAACT the switch fluorescence ratio was 1.024 ± 0.0098.
With AAAGATTAGT the switch fluorescence ratio was 0.9713 ± 0.0097.
AAAGCGAGTC was tested, and the switch fluorescence ratio was 1.021 ± 0.01.
With AAAGCGGACT the switch fluorescence ratio was 1.044 ± 0.0089.
Work on AAAGCGGGGA yielded a switch fluorescence ratio of 1.04 ± 0.011.
For AAAGCGTGTT, the switch fluorescence ratio was 1.02 ± 0.05.
AAAGCTCGTG showed a switch fluorescence ratio of 1 ± 0.015.
In the case of AAAGCTGCGT, the switch fluorescence ratio is reported as 0.9843 ± 0.0049.
For AAAGCTTCAT, the switch fluorescence ratio was 1.46 ± 0.088.
With AAAGCTTTGA the switch fluorescence ratio was 0.983 ± 0.01.
With AAAGGAAGG the switch fluorescence ratio was 0.995 ± 0.013.
AAAGGAGAGC gave a switch fluorescence ratio of 0.973 ± 0.087.
Sequence AAAGGAGGGA has a switch fluorescence ratio of 1.01 ± 0.035.
For AAAGGAGGGT, the switch fluorescence ratio was 0.9994 ± 0.0062.
Work on AAAGGATATG yielded a switch fluorescence ratio of 0.995 ± 0.018.
With AAAGGATGG the switch fluorescence ratio was 0.997 ± 0.036.
In the case of AAAGGATGGT, the switch fluorescence ratio is reported as 0.953 ± 0.022.
AAAGGCCGTG was tested, and the switch fluorescence ratio was 1.0223 ± 0.00097.
AAAGGGATAG showed a switch fluorescence ratio of 1.01 ± 0.038.
With AAAGGGCGGG the switch fluorescence ratio was 1.016 ± 0.0049.
